Assay [1] concerns the target full-length FLAG-tagged human TSLPR and full-length HA-tagged human IL-7Ralpha co-expressed on HEK293T cells (human) (UniProt Q9HC73). Description: cell-based or functional assay.
Assay [2] concerns the target T1, C-terminally biotinylated human TSLP_R127A_R130S (pHL-TSLP_R127A_R130S-AVITAG construct) (human, UniProt Q969D9 29-159, specific C-terminal in vivo biotinylation on the AVITAG).
T1 construct: Made in HEK293T cells with BirA co-transfection; immobilised on streptavidin biosensors for BLI; also called biotinylated TSLP; not shown: C-terminal AVITAG (and purification tag) of the pHL-AVITAG vector
The experiment in a line: biolayer interferometry (Octet RED96), biotinylated TSLP on streptavidin biosensors, 1:1 model.

For assay [3], the target named is T1, C-terminally biotinylated human …. The experiment in a line: biolayer interferometry (Octet RED96), biotinylated TSLP on streptavidin biosensors, 1:1 model, average of three replicates. On the technique in general: Biolayer interferometry detects binding as a change in optical thickness at a sensor tip.
Method: All BLI experiments were performed in PBS buffer supplemented with 0.01% (w/v) BSA and 0.002% (v/v) Tween 20, with an Octet RED96 instrument (ForteBio), operating at 25° C.
All data were fitted with the FortéBio Data Analysis 9.0.0.4 software using a 1:1 ligand model. The reported values for the fitted parameters represent the average (and standard deviation) from three replicate measurements.

We go through 2 molecules from patent US20190127440A1 (VIB VZW, published 2019).

T1 sequence (Q969D9 29-159 R127A/R130S limits assumed): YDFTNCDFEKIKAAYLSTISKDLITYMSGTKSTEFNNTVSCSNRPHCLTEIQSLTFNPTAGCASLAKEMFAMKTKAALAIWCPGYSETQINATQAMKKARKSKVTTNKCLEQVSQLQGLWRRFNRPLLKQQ
Sequence of full-length FLAG-tagged human TSLPR and full-length HA-tagged human IL-7Ralpha co-expressed on HEK293T cells (human) (Q9HC73 23-371, chain 1 of 2): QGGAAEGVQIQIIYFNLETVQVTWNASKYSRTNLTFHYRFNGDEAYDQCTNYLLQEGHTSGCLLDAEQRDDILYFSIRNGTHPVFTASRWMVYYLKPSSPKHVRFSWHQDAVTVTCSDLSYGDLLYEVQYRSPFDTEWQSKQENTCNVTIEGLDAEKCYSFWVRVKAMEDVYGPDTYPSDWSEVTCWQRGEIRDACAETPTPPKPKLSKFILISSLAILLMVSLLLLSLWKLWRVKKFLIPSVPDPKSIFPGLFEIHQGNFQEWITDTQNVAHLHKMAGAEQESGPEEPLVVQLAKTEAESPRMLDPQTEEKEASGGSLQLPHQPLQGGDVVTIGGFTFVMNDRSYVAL
Sequence of full-length FLAG-tagged human TSLPR and full-length HA-tagged human IL-7Ralpha co-expressed on HEK293T cells (human) (P16871 21-459, chain 2 of 2, further chain): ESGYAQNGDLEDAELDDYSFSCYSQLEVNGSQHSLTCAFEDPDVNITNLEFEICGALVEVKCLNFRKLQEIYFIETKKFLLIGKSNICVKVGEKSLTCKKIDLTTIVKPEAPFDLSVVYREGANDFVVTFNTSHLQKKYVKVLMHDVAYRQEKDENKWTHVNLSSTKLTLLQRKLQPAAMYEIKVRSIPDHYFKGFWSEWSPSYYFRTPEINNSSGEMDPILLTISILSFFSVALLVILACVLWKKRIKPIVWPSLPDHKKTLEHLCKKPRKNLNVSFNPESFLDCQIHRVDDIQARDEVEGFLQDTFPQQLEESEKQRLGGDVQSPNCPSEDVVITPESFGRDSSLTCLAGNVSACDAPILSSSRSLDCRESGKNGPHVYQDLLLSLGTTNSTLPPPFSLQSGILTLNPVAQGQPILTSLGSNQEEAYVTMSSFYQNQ

In assay [1], “human TSLP_R127A_R130S, mammalian-cell derived recombinant, C-terminal His-tag (from UniProt Q969D9 29-159) (ligand)” registered an STAT5-dependent luciferase activity in HEK293T cells transfected with full-length TSLPR and IL-7Ralpha of 9 pM.

B1: human TSLP-trap1 (designed binder)
chain: GAAEGVQIQIIYFNLETVQVTWNASKYSRTNLTFHYRFNGDEAYDQCTNYLLQEGHTSGCLLDAEQRDDILYFSIRNGTHPVFTASRWMVYYLKPSSPKHVRFSWHQDAVTVTCSDLSYGDLLYEVQYRSPFDTEWQSKQENTCNVTIEGLDAEKCYSFWVRVKAMEDVYGPDTYPSDWSEVTCWQRGEIRDACAETPTPPKPKLSKSRGGSGGSGGSGGSGGSGGSGGSGGSGGSGGSGGSGGSGGSGGSGGSGGSGGSGGSGGSGGSLQESGYAQNGDLEDAELDDYSFSCYSQLEVNGSQHSLTCAFEDPDVNTTNLEFEICGALVEVKCLNFRKLQEIYFIETKKFLLIGKSNICVKVGEKSLTCKKIDLTTIVKPEAPFDLSVIYREGANDFVVTFNTSHLQKKYVKVLMHDVAYRQEKDENKWTHVNLSSTKLTLLQRKLQPAAMYEIKVRSIPDHYFKGFWSEWSPSYYFRTPEINNSSGEMDGTKHHHHHH
notes: Monomeric single chain fusion protein; Produced in T-REx-293 cells
Broadly, the koff is the rate constant with which the complex falls apart. A high value points to fast dissociation. A word on the Kd: it is the equilibrium constant for the complex coming apart. A high value points to weaker binding. The kon is the rate constant with which the complex forms. High values mean fast association, low ones slow association. Turning to B1, the koff in assay [2] came to 1.72e-05 s⁻¹. In assay [3], this molecule had a Kd of 120 pM and a kon of 140000 M⁻¹ s⁻¹.
